Test results taken from patent US8562982B2, “Use of platelet activating factor acetylhydrolase as a biomarker for anaphylaxis” (Allertech Laboratory Inc., priority 2007, dated 2013).

Experiment: Stability of PAF-AH in serum (storage temperatures, freeze-thaw cycles)
Type: physicochemical, human
Experimental: Sera may have been stored under differing conditions, subjecting PAF-AH to thermal stresses. In order to evaluate the effect of handling and storage conditions on PAF-AH activity, serum samples were subjected to a range of temperatures and freeze-thaw cycles and assayed for residual PAF-AH activity as detailed below.
The final concentration of the substrate was 160 μM. […] The reaction was stopped in an ice bath.
Serum samples from individuals with fatal peanut anaphylaxis and from various control groups may have been stored under differing conditions, subjecting PAF-AH to thermal stresses. In order to evaluate the effect of handling and storage conditions on PAF-AH activity, sera were stored at different temperatures. The stability of PAF-AH stored at 4° C. and 23° C. and subjected to repeated cycles of freeze-thawing was assessed. PAF-AH levels were measured at specified times following storage at 23° C. (2, 4, 8, 24 and 48 hours) and at 4° C. (5 and 10 days) and following 5 sequential cycles of freezing and thawing. To assess the stability of PAF-AH to long term storage, serum samples stored at −70° C. since 1998 were re-assayed for PAF-AH and compared to results of assay results prior to storage.

B1: PAF-AH: the enzyme that degrades PAF; endogenous serum enzyme measured as biomarker (protein, UniProt Q13093 22-441, looked up)
Platelet-activating factor …: FDWQYINPVAHMKSSAWVNKIQVLMAAASFGQTKIPRGNGPYSVGCTDLMFDHTNKGTFLRLYYPSQDNDRLDTLWIPNKEYFWGLSKFLGTHWLMGNILRLLFGSMTTPANWNSPLRPGEKYPLVVFSHGLGAFRTLYSAIGIDLASHGFIVAAVEHRDRSASATYYFKDQSAAEIGDKSWLYLRTLKQEEETHIRNEQVRQRAKECSQALSLILDIDHGKPVKNALDLKFDMEQLKDSIDREKIAVIGHSFGGATVIQTLSEDQRFRCGIALDAWMFPLGDEVYSRIPQPLFFINSEYFQYPANIIKMKKCYSPDKERKMITIRGSVHQNFADFTFATGKIIGHMLKLKGDIDSNVAIDLSNKASLAFLQKHLGLHKDFDQWDCLIEGDDENLIPGTNINTTNQHIMLQNSSGIEKYN
With B1 the “residual PAF-AH activity” value (6 fresh sera, 5 freeze-thaw cycles, relative to fresh sera) was 90-105%, the “mean PAF-AH activity” value (fresh sera in 1998 (n=25), before storage) was 27.04 ± 9.92 nmol/mL/min and the “mean PAF-AH activity” value (same sera after eight years at −70° C. (p=0.1047)) was 22.98 ± 7.23 nmol/mL/min. For the same molecule, the “retained initial PAF-AH activity” value (sera stored at 4° C. for 10 days) was 96-102% and the “retained PAF-AH activity of fresh sera” value (sera stored at 23° C. for up to 48 hours) was 84-92%.
